Laboratory results: US20130274124A1

Legend:
Assay in all cases: cell-based or functional assay
[1] = target: collagen I/laminin (hit ECM combination) (human) (UniProt P02452)
[2] = target: collagen II/galectin-4 (hit ECM combination) (human) (UniProt P02458)
[3] = target: collagen IV/galectin-8 (hit ECM combination) (human) (UniProt P02462)

Chain of collagen I/laminin (hit ECM combination) (human) (P02452 162-1218 limits assumed, chain 1 of 2): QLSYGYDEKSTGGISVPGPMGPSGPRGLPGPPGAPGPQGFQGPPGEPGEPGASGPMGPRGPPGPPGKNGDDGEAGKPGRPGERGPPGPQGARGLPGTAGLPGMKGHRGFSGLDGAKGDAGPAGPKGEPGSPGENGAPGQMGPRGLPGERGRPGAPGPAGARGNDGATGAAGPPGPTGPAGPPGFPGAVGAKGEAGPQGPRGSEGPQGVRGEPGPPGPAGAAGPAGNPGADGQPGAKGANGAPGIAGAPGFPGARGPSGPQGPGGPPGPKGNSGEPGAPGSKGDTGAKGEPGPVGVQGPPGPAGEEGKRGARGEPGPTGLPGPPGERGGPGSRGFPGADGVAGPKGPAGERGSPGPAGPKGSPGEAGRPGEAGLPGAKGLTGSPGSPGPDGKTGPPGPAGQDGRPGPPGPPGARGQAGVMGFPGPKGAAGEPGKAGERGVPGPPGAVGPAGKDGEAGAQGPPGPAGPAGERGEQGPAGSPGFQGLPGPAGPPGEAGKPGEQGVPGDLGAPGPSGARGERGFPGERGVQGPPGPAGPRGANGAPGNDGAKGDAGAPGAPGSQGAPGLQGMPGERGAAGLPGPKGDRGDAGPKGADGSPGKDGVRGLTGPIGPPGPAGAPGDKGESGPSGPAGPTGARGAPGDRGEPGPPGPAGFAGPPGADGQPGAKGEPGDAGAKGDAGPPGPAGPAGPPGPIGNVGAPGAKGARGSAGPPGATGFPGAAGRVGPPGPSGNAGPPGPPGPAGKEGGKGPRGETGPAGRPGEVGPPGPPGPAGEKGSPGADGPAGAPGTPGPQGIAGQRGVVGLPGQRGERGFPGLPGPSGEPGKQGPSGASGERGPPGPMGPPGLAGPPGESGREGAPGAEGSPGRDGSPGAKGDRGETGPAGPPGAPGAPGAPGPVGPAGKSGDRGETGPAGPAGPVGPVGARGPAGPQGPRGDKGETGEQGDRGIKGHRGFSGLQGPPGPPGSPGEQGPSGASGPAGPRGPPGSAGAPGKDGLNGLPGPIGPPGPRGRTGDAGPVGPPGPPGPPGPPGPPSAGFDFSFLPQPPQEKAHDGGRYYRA
Chain of collagen I/laminin (hit ECM combination) (human) (chain, as listed by the source limits assumed, chain 2 of 2): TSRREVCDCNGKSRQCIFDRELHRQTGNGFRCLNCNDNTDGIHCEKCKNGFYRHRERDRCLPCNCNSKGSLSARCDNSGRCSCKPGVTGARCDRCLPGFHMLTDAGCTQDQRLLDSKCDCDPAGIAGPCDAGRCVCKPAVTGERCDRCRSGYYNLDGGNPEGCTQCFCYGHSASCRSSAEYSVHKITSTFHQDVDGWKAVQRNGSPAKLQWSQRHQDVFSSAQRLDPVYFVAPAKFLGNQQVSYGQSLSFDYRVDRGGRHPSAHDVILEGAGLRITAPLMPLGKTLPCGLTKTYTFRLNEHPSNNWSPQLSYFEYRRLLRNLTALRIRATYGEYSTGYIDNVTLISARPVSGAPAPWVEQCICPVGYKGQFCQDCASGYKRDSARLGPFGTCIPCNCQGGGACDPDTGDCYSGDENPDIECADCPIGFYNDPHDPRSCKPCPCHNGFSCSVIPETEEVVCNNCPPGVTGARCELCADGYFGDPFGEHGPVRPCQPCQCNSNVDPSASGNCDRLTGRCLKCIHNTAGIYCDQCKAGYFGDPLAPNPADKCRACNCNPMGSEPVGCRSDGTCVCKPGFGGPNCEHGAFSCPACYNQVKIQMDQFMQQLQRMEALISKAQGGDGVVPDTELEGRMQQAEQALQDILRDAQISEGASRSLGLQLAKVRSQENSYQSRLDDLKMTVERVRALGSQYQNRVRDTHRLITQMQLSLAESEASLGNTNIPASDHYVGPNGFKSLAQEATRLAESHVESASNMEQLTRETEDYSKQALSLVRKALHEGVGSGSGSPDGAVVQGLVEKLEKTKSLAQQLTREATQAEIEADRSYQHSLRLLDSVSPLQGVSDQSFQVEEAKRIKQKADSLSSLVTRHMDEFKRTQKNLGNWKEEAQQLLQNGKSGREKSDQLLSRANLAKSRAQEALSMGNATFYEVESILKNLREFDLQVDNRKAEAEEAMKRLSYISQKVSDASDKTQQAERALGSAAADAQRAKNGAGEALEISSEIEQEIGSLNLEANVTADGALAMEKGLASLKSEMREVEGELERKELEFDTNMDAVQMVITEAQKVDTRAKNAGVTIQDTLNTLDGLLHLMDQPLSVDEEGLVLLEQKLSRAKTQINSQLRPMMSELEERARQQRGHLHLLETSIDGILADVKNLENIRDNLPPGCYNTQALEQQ
Chain of collagen II/galectin-4 (hit ECM combination) (human) (P02458 other isoform, or with tags, fused parts or gaps limits assumed, chain 1 of 2): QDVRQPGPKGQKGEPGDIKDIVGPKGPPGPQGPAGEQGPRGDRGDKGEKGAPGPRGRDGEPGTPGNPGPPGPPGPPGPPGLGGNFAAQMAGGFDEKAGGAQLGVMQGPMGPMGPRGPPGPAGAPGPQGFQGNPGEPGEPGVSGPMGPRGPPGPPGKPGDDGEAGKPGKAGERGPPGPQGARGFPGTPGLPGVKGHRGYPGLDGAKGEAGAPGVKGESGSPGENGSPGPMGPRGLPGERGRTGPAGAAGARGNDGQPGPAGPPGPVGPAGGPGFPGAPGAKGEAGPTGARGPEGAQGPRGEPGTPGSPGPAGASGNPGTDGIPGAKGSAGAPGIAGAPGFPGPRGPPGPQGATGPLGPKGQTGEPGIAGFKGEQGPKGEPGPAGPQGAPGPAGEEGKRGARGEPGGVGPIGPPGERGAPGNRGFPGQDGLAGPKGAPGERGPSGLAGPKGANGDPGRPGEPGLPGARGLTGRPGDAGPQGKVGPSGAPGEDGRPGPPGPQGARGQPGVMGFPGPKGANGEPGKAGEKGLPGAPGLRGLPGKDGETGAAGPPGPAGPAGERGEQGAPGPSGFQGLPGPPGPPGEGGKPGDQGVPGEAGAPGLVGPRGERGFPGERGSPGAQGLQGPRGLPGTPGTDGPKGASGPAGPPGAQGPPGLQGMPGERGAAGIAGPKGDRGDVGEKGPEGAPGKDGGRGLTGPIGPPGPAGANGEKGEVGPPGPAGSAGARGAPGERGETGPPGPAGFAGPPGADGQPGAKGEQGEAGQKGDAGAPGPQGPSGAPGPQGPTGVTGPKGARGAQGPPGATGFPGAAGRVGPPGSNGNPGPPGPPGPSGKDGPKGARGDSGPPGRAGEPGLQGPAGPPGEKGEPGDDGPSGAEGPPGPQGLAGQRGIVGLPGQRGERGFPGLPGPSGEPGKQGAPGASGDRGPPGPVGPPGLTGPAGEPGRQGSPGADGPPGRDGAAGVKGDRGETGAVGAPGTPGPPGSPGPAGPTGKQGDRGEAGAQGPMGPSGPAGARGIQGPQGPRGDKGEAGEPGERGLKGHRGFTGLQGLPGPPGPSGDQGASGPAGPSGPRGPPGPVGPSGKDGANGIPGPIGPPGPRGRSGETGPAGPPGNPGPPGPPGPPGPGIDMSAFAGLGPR
Chain of collagen II/galectin-4 (hit ECM combination) (human) (chain, as listed by the source limits assumed, chain 2 of 2): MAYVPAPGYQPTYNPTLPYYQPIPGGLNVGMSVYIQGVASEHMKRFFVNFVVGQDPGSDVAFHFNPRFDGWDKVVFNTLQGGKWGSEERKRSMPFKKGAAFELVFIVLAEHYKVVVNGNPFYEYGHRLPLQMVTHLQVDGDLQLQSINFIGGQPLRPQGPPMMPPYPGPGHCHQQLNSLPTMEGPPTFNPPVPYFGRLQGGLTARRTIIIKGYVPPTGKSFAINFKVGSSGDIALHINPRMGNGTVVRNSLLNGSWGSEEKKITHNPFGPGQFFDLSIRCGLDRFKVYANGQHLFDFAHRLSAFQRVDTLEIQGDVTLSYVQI

- reduction of cellular attachment after blocking the integrin with an antibody [1]: 50%
- reduction of cellular attachment after blocking the integrin with an antibody [2]: 50%
- reduction of cellular attachment after blocking the integrin with an antibody [3]: 50%
Substance: α1 integrin (from UniProt P56199 29-1179) (receptor)
